Data taken from US20260201030A1, “ANTIBODY, ANTIBODY-DRUG CONJUGATE THEREOF AND USE THEREOF” (EVOPOINT BIOSCIENCES CO., LTD., priority 2021, published 2026).
Substitutions are numbered along the chain they refer to.

How the values were obtained:
human Claudin18.2 [1] = biological target: T1, human Claudin18.2 (Homo sapiens, UniProt P56856); experiment: Cell-based ELISA affinity on NUGC4-Claudin18.2 (human) cells; type: binding
T1 construct: expressed in transfected cells

human Claudin18.2 [2] = biological target: T1, human Claudin18.2; experiment: Cell-based FACS affinity on NUGC4-Claudin18.2 (human) cells; type: binding
Method: (§1) The affinity of the anti-human Claudin18.2 humanized antibodies was detected by flow cytometry. The experimental procedures were as follows: The adherent cultured HEK293T-Claudin18.2 (human), NUGC4-Claudin18.2 (human) and NUGC4 cells were digested, collected by centrifugation, and washed three times with pre-cooled PBS. The cells were resuspended in 1% BSA (in PBS) and added to a 96-well pointed bottom plate at 3×10^5 cells/well, with a volume of 50 μL per well. Each test antibody was diluted with 1% BSA (in PBS) (starting at 100 μg/mL, diluted in a 3-fold gradient, for 10 concentration points). The test antibody subjected to gradient dilution was added to the cells at 50 μL/well, and the mixture was well mixed and incubated at 4° C. for 1 h. The cells were collected by centrifugation, washed three times with pre-cooled PBS, and resuspended in 50 μL of 1% BSA (in PBS). 1 μL of a fluorescent secondary antibody (Biolegend-410712) was added to each well, and the mixture was well mixed and incubated at 4° C. for 0.5 h. The cells were collected by centrifugation, washed three times with pre-cooled PBS, resuspended in 200 μL of PBS, and assayed on a machine.

human Claudin18.2 [3] = biological target: T1, human Claudin18.2; experiment: Cell-based FACS affinity on NUGC4 cells; type: binding
Method: as §1

[4] = system: cynomolgus monkey Claudin18.2; experiment: FACS species affinity on HEK293T-Claudin18.2 (cynomolgus monkey) cells; type: binding; conditions: cell-based FACS
Method: (§2) The affinity of the anti-human Claudin18.2 humanized monoclonal antibodies for Claudin18.2 of different species was determined by flow cytometry (FACS). The experimental procedures were as follows: HEK293T-Claudin18.2 (cynomolgus monkey) cells, HEK293T-Claudin18.2 (mouse) cells and HEK293T-Claudin18.2 (rat) cells were digested, collected by centrifugation, washed three times with pre-cooled PBS, resuspended in 1% BSA (in PBS), and added to a 96-well pointed bottom plate at 3×10^5 cells/well. Each antibody subjected to gradient dilution was added, and the mixture was incubated at 4° C. for 1 h. The cells were washed three times with pre-cooled PBS, and then 1 μL of a fluorescent secondary antibody (APC: Biolegend-410712) was added to each well. The mixture was incubated at 4° C. for 0.5 h, and the cells were washed three times with pre-cooled PBS, then resuspended, and assayed on a flow cytometer.

mouse Claudin18.2 = biological target: T2, mouse Claudin18.2 (Mus musculus, UniProt P56857); experiment: FACS species affinity on HEK293T-Claudin18.2 (mouse) cells; type: binding; conditions: cell-based FACS
T2 construct: expressed in transfected cells
Method: as §2

rat Claudin18.2 = biological target: T3, rat Claudin18.2 (Rattus norvegicus, UniProt Q5I0E5); experiment: FACS species affinity on HEK293T-Claudin18.2 (rat) cells; type: binding; conditions: cell-based FACS
T3 construct: expressed in transfected cells
Method: as §2

[5] = system: HEK293T-Claudin18.2 (human) cells; experiment: CDC activity, guinea pig serum killing experiment; type: cell-based; conditions: 20% guinea pig serum, 5 h
Method: CDC activity of the anti-human Claudin18.2 humanized monoclonal antibodies was detected by a guinea pig serum killing experiment. The experimental procedures were as follows: HEK293T-Claudin18.2 (human) cells were digested, collected by centrifugation, plated at 50000 cells/well, and incubated overnight. The supernatant was discarded, and 100 μL of each test antibody subjected to gradient dilution with DMEM+20% guinea pig serum (Beijing Bersee, BM361Y) was added to each well. The mixture was incubated at 37° C. for 5 h, and 20 μL of a CCK8 reagent (Suzhou Rhino Bio, QDY-003-D) was added to each well. The mixture was allowed to react for 1-4 h, and readings were taken at 450 nm on a microplate reader.

human Claudin18.2 [6] = biological target: T1, human Claudin18.2; experiment: Cell ELISA affinity before and after conjugation, L929-claudin 18.2 (human) cells; type: binding; conditions: FIG. 8A
Method: The cell binding affinity of the antibody before and after conjugation to the toxin was detected according to a method similar to that described in Example 2.2. L929-claudin 18.2 (human) or NUGC4 cells were digested with trypsin, collected by centrifugation, washed three times with pre-cooled PBS, resuspended, added to a 96-well plate at 5×10^4 cells/well, and incubated overnight. The cells were fixed with 4% paraformaldehyde and blocked with 2% BSA (in PBS) at 37° C. for 2 h. Each ADC drug or antibody subjected to gradient dilution was added, and the mixture was incubated at 37° C. for 2 h. […] A TMB substrate was added for color development, and after the reaction was stopped by 2 M HCl, OD450 nm values were read on a microplate reader.

T2 sequence (P56857 1-264 isoform P56857-3): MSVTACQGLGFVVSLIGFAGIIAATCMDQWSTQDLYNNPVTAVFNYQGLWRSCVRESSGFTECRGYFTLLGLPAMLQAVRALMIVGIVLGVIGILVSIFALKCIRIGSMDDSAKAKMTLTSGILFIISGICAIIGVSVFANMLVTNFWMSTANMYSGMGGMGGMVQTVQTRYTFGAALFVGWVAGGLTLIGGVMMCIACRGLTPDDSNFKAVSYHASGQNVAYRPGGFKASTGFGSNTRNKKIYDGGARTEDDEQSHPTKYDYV
T3 sequence (Q5I0E5 1-261 isoform Q5I0E5-2): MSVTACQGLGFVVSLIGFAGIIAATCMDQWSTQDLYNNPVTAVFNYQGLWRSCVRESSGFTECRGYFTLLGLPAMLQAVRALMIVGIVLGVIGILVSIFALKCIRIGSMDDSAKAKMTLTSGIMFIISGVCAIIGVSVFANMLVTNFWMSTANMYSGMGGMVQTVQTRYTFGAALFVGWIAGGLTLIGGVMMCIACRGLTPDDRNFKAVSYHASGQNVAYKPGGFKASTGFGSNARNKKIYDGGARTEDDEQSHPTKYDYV

B1: 25C7A5-HZ1: humanized anti-Claudin18.2 antibody, VH SEQ ID NO: 1, VL SEQ ID NO: 2, human IgG1/Kappa constant regions (antibody, V domains shown)
VH: QVQLVQSGAEVKKPGSSVKVSCKASGYTFTNYWLHWVRQAPGQGLEWMGMMHPISGSSNYAQKFQGRATLTVDKSTSTAYMELSSLRSEDTAVYYCARGLLSAMDYWGQGTLVTVSS
VL: EIVLTQSPATLSLSPGERATLSCKASENVKTYVSWYQQKPGQSPRLLIYEASNRYTGVPARFSGSGSATDFTLTISSLEPEDFAVYFCGQTYSFPPTFGQGTKVEIK
modifications: human IgG1/kappa constant regions
NUGC4-Claudin18.2 EC50 (human Claudin18.2 [1]): 0.1076 µg/mL | NUGC4-Claudin18.2 Maximum signal value (human Claudin18.2 [1]; OD450): 1.284 | NUCG4- Claudin18.2 EC50 (human Claudin18.2 [2]): 3.192 µg/mL | NUCG4- Claudin18.2 Maximum signal value (human Claudin18.2 [2]): 871132 | binding to NUGC4 (in words) (human Claudin18.2 [3]): significant binding | HEK293T-Claudin18.2 (cynomolgus monkey) EC50 [4]: 0.2398 µg/mL | HEK293T-Claudin18.2 (mouse) EC50 (mouse Claudin18.2): 0.9407 µg/mL | HEK293T-Claudin18.2 (rat) EC50 (rat Claudin18.2): 1.672 µg/mL | CDC activity EC50 [5]: 3.137 µg/mL | change in affinity for the cells before and after conjugation (human Claudin18.2 [6]): no significant changes in the affinity

B2: 25C7A5-HZ2: humanized anti-Claudin18.2 antibody, VH SEQ ID NO: 3, VL SEQ ID NO: 2, human IgG1/Kappa constant regions (antibody, V domains shown)
VH: B1 VH with Q6E
VL: B1 VL
modifications: human IgG1/kappa constant regions
HEK293T-Claudin18.2 (cynomolgus monkey) EC50 [4]: 0.2133 µg/mL | CDC activity EC50 [5]: 3.283 µg/mL | change in affinity for the cells before and after conjugation (human Claudin18.2 [6]): no significant changes in the affinity
